Data on 13 sequences can be found in the supplement of paper PMC9170038.

In this data set the test system is MS2 coat protein. As to the kind of experiment: apparent KD of MS2 coat protein; designed switch direction (-1 OFF switch, 1 ON switch): -1; higher = weaker reporter binding. Summed up:
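Designed RNA switches sharing common flanks were transcribed on Illumina chips by stalled E. coli RNA polymerase. They were titrated with SNAP-549-labelled MS2 coat protein, from 0.7 or 1.5 nM doubling to 3 µM, in Tris-HCl pH 7.5 buffer with KCl, MgCl2, BSA, DTT, tRNA and Tween-20. Titrations ran without input, with 200 uM small-molecule ligand, or with an oligonucleotide input. The apparent KD of each design is the median over its clusters, after curve-fitting of normalised cluster fluorescence.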

Where [1] appears, read: Eterna round: R95, input ligand: FMN 200 uM.
The mark [2] stands for this setting: Eterna round: R95, input ligand: microRNA oligo, concentration not stated.
Setting [3] is: Eterna round: R95, input ligand: none.

Consider “UGACUACAUGAGGAUCACCCAUGUCAGGAUAUGCCGUUAAAUUAACAUCAACAUACGGGUAGAAGGGACAGCGU [1st #5] (Eterna round: R97, puzzle: Exclusion 1)”, for which the “apparent KD of MS2 coat protein” value runs as follows: (input ligand: FMN 200 uM) 27.2 nM; (input ligand: none) 29.4 nM.
For “AGUAACUAUCACGAAAGUGAUAGUUACAAUAGCAGUGGAACAUGAGGAUCACCCAUGUCCUCAUUUGCUCGUCUUAU [Sensor 3 - 22] (puzzle: Sensor v3, turn-off variant 2)”, the “apparent KD of MS2 coat protein” value worked out at 36.2 nM under setting [1], 21.6 nM under setting [2] and 38.4 nM under setting [3].
Turning to “GCUAGGCAUGUCAGGAUAUGCUGUACCUUGGUACAGCAGAAGGGACAUGAGGAUCACCCAUGUGCCUACCUAGC [JL-BMX4-4.04] (Eterna round: R97, puzzle: Brourd's mod of Exclusion 4)”, the “apparent KD of MS2 coat protein” value by setting is: (input ligand: FMN 200 uM) 173 nM; (input ligand: none) 28.3 nM.
As for “GCGUCGAGUGUGAGGAUAUGCUGGUCAUAAGAUCAGCAGAAGGCACAUGAGGAUCACCCAUGUGAAAACGAUGC [Mat - Exclusion 4 - JL Mod - D69] (puzzle: Brourd's mod of Exclusion 4)”, the “apparent KD of MS2 coat protein” value by setting is: under setting [1], 73.2 nM; under setting [2], 16.3 nM; under setting [3], 20.6 nM.
“UAUAUAUAGUAAGGAUAUGUAUAUUUUUUAUAAACAGAAGGUACUGACAUGAGGAUCACCCAUGUUUUAGUGUGGGCAUGUAGA [JMF's solution 53] (Eterna round: R96, puzzle: Exclusion NG 1)”: the “apparent KD of MS2 coat protein” value (input ligand: microRNA oligo, concentration not stated) worked out at 63.8 nM.
Take “AGCAGGCAUUCCUCUGGACACAUGAGGAUCACCCAUGUUCGUCGCUCGCAGCGUUGAGGCAUUACCCUUAACGCUUU [Eternabot (Original) Solution 29] (Eterna round: R97, puzzle: Sensor, turn-off variant 1)”: the “apparent KD of MS2 coat protein” value by setting is: (input ligand: FMN 200 uM) 52.5 nM; (input ligand: none) 48.8 nM.
“UUUAAUUUUUUUUUUUUACAAGCUUUUUGCUCGUCUUAUACAUGAGGAUCACCCAUGUGAAUGGGAAAUGAAUUAUC [JMF 96] (puzzle: Sensor v3, turn-off variant 2)”: the “apparent KD of MS2 coat protein” value under setting [1] was found to be 112 nM, the “apparent KD of MS2 coat protein” value under setting [2] stood at 268 nM and the “apparent KD of MS2 coat protein” value under setting [3] was found to be 132 nM.
For the sequence “UUUUAACAUGAGGAUCACCCAUGUGAGGAUAUCGAAAUUUAUAUUAAUAUUAUUUAUACGAGAAGGCACAUUUU [JMF 46] (puzzle: Exclusion 1)”, the “apparent KD of MS2 coat protein” value under setting [2] stood at 64.9 nM.
“UAUUAGUAAGGAUAUCUCGUCAUGGACGUGAGUCCAUGACGAGAGAAGGUACAUGAGGAUCACCCAUGUCCAUU [Mod of Fisker 20 - Jieux - Exclusion 4] (Eterna round: R97, puzzle: Exclusion 4)”: the “apparent KD of MS2 coat protein” value (input ligand: FMN 200 uM) came to 16.5 nM and the “apparent KD of MS2 coat protein” value (input ligand: none) is 14.1 nM.
In the case of “GUAGAGUAAGGAUAUGUUGAAUAGGAUAGAAUGGUUAGAAAACAGAAGGUACAUGAGGAUCACCCAUGUAAUGU [Excluse me!!!! 11 - Jieux - Exclusion 4] (puzzle: Exclusion 4)”, the “apparent KD of MS2 coat protein” value reads like this: under setting [1], 20 nM; under setting [2], 19.1 nM; under setting [3], 17.6 nM.
On to “AAUAACAUGUUGAUCAAAGACAUGAGGAUCACCCAUGUCAGCUUUUUGUUCGUAGAUUAACACUAAUAAUAAUAAUA [Stov1new/2-C] (Eterna round: R97, puzzle: Sensor, turn-off variant 1)”, for which the “apparent KD of MS2 coat protein” value by setting is: (input ligand: FMN 200 uM) 16.5 nM; (input ligand: none) 16.5 nM.
On to “AUAGAGUCAGGAUAUACAGGUGGAGGAGAGCAGCGUAAGGAGUAGAAGGGACAUGAGGAUCACCCAUGUAAGUG [JR_Exclu4_Sub060] (puzzle: Exclusion 4)”, for which the “apparent KD of MS2 coat protein” value reads like this: under setting [1], 52.5 nM; under setting [2], 55.1 nM; under setting [3], 81.2 nM.
As for “UUGAAGUCAGGAUAUCGUUAAUUUAGUUGUUUGUAUUAGUUCGAGAAGGGACAUGAGGAUCACCCAUGUAAGUA [Ex4 #47] (Eterna round: R97, puzzle: Exclusion 4)”, the “apparent KD of MS2 coat protein” value by setting is: (input ligand: FMN 200 uM) 32.7 nM; (input ligand: none) 40.5 nM.
